Test results: US6617117

What was measured:
[1] = target: SAPK3 (untagged, transfected) (rat) (UniProt Q63538); assay: cell-based or functional assay
[2] = target: c-myc epitope-tagged SAPK4 (human) (UniProt O15264); assay: cell-based or functional assay
human GST-SAPK4 = system: T1, human GST-SAPK4
T1 sequence: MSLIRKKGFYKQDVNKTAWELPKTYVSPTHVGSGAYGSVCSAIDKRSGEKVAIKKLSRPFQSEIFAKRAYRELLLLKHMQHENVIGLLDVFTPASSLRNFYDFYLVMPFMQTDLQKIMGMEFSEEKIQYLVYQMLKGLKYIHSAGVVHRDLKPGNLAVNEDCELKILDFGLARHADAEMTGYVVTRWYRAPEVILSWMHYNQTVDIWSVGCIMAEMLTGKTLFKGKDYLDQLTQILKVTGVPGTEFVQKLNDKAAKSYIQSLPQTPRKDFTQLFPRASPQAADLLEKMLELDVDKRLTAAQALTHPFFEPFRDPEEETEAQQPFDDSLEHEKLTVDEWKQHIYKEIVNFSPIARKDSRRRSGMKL

SAPK3 (untagged, transfected) (rat), sequence (Q63538 whole entry): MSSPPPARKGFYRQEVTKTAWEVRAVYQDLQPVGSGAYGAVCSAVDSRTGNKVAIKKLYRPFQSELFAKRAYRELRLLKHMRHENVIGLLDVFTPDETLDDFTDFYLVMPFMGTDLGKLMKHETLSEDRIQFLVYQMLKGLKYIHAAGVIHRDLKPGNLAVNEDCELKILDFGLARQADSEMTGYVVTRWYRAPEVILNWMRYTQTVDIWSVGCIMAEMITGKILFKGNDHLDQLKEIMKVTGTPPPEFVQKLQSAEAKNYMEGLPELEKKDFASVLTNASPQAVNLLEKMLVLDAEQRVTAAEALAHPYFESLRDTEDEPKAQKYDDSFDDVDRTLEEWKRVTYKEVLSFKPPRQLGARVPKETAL

Substance | SAPK3 activity (MBP phosphorylation) after cotransfection into COS cells [1] [fold] | activation of transfected SAPK3 by osmotic shock in cells cotransfected with SKK3 [1] [fold] | SAPK4 activity (MBP phosphorylation) after co-transfection into COS cells [2] [fold] | phosphorylation and activation of SAPK4 in vitro (human GST-SAPK4)
human SKK3 (transfected, pcDNA3.1) (from UniProt P52564 1-334) (enzyme) | 10 | 30 | 12.5 | 
SKK1 (MKK4) |  |  |  | SAPK4 is phosphorylated and activated by SKK1 in vitro, but at a much slower rate than SAPK2a under identical conditions
